Patent publication US20150344570A1 (published 2015)
Residue numbers refer to the chain shown, from its start.

T1: FcgRIIaR (human, UniProt P12318 34-217)
T1 construct: extracellular domain; also called FcγRIIa R; FcgRIIa type R; not shown: His tag attached to the C terminus
T1 sequence (looked up): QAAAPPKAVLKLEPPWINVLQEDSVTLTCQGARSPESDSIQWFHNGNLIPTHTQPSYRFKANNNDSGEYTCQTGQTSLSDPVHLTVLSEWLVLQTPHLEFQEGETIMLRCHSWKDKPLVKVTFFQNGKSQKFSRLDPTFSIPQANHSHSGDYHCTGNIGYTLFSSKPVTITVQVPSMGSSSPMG

T2: FcgRIIaH (human, UniProt P12318 34-217)
T2 construct: extracellular domain; also called FcγRIIa H; FcgRIIa type H; not shown: His tag attached to the C terminus
T2 sequence (looked up): T1 sequence (looked up) with R134H

T3: FcgRIIb (human, UniProt P31994 43-217)
T3 construct: extracellular domain; also called FcγRIIb; 2b; not shown: His tag attached to the C terminus
T3 sequence (looked up): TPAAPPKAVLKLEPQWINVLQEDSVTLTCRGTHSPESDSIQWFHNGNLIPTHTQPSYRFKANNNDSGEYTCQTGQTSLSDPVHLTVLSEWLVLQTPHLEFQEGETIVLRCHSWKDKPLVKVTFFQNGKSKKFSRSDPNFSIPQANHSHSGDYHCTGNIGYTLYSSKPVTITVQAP

B1: H240-Kn212/H240-Hl076/L73-k0 (antibody, human IgG1, kappa)
heavy 1: QDQLVQSGAEVKKPGASVKVSCKASGFNIKDTYIQWVRQAPGQGLEWMGRIDPLRKQTKYREKFEGRVTITADTSTNTAYMELSSLRSEDTAVYYCVRSGREFDYWGQGTLVTVSSASTKGPSVFPLAPSSKSTSGGTAALGCLVKDYFPEPVTVSWNSGALTSGVHTFPAVLQSSGLYSLSSVVTVPSSSLGTQTYICNVNHKPSNTKVDKKVEPKSCDKTHTCPPCPAPETQWGPMVFLFPPKPKDTLMISRTPEVTCVVVDVSDEEPEVKFNWYVDGVEVHNAKTKPREEQYNATYRVVSVLTVLHQDWLNGKEYKCKVSNKALPAPIEKTISKAKGQPREPQVCTLPPSRDELTKNQVSLWCLVKGFYPSDIAVEWESNGQPENNYKTTPPVLDSDGSFFLYSKLTVDKSRWQQGNVFSCSVMHEALHNHYTQKSLSLSP
heavy 2: QDQLVQSGAEVKKPGASVKVSCKASGFNIKDTYIQWVRQAPGQGLEWMGRIDPLRKQTKYREKFEGRVTITADTSTNTAYMELSSLRSEDTAVYYCVRSGREFDYWGQGTLVTVSSASTKGPSVFPLAPSSKSTSGGTAALGCLVKDYFPEPVTVSWNSGALTSGVHTFPAVLQSSGLYSLSSVVTVPSSSLGTQTYICNVNHKPSNTKVDKKVEPKSCDKTHTCPPCPAPELLGGPSVFLFPPKPKDTLMISRTPEVTCVVVDVSHEEPEVKFNWYVDGVEVHNAKTKPREEQYNSTYRVVSVLTVLHQDWLNGKEYKCKVSNDALPMPIEETISKAKGQPREPQVYTLPPSRCELTKNQVSLSCAVKGFYPSDIAVEWESNGQPENNYKTTPPVLDSDGSFFLVSKLTVDKSRWQQGNVFSCSVMHEALHNHYTQKSLSLSP
light: DIQMTQSPSSLSASVGDRVTITCRASQDIHKYIAWYQQKPGQAPRLLIQYTSTLQPGVPSRFSGSGSGTDYTFTISSLQPEDIATYYCLQYEQLRTFGGGTKVEIKRTVAAPSVFIFPPSDEQLKSGTASVVCLLNNFYPREAKVQWKVDNALQSGNSQESVTEQDSKDSTYSLSSTLTLSKADYEKHKVYACEVTHQGLSSPVTKSFNRGEC
notes: Anti-epiregulin heterodimerized IgG1, knobs-into-holes
B2: H240-Kn224/H240-Hl068/L73-k0 (antibody, human IgG1, kappa)
heavy 1: B1 heavy 1 with T233H, Q234Y, E269D, A326D
heavy 2: B1 heavy 2 with M329K
light: B1 light
notes: as for B1
B3: H240-Kn222/H240-Hl068/L73-k0 (antibody, human IgG1, kappa)
heavy 1: B1 heavy 1 with T233A, Q234Y, E269D, A326D
heavy 2: B1 heavy 2 with M329K
light: B1 light
notes: as for B1
B4: H240-Kn223/H240-Hl068/L73-k0 (antibody, human IgG1, kappa)
heavy 1: B1 heavy 1 with T233G, Q234Y, E269D, A326D
heavy 2: B1 heavy 2 with M329K
light: B1 light
notes: as for B1
B5: H240-Kn220/H240-Hl068/L73-k0 (antibody, human IgG1, kappa)
heavy 1: B1 heavy 1 with T233M, Q234Y, E269D, A326D
heavy 2: B1 heavy 2 with M329K
light: B1 light
notes: as for B1
B6: H240-Kn219/H240-Hl068/L73-k0 (antibody, human IgG1, kappa)
heavy 1: B1 heavy 1 with T233I, Q234Y, E269D, A326D
heavy 2: B1 heavy 2 with M329K
light: B1 light
notes: as for B1
B7: H240-Kn214/H240-Hl076/L73-k0 (antibody, human IgG1, kappa)
heavy 1: B1 heavy 1 with T233G
heavy 2: B1 heavy 2
light: B1 light
notes: as for B1
B8: H240-Kn216/H240-Hl068/L73-k0 (antibody, human IgG1, kappa)
heavy 1: B1 heavy 1 with T233V, Q234Y, E269D, A326D
heavy 2: B1 heavy 2 with M329K
light: B1 light
notes: as for B1
B9: H240-Kn221/H240-Hl068/L73-k0 (antibody, human IgG1, kappa)
heavy 1: B1 heavy 1 with Q234Y, E269D, A326D
heavy 2: B1 heavy 2 with M329K
light: B1 light
notes: as for B1
B10: H240-Kn218/H240-Hl068/L73-k0 (antibody, human IgG1, kappa)
heavy 1: B1 heavy 1 with T233Q, Q234Y, E269D, A326D
heavy 2: B1 heavy 2 with M329K
light: B1 light
notes: as for B1
B11: H240-Kn215/H240-Hl076/L73-k0 (antibody, human IgG1, kappa)
heavy 1: B1 heavy 1 with T233H
heavy 2: B1 heavy 2
light: B1 light
notes: as for B1
B12: H240-Kn213/H240-Hl076/L73-k0 (antibody, human IgG1, kappa)
heavy 1: B1 heavy 1 with T233A
heavy 2: B1 heavy 2
light: B1 light
notes: as for B1
B13: H240-Kn217/H240-Hl068/L73-k0 (antibody, human IgG1, kappa)
heavy 1: B1 heavy 1 with T233D, Q234Y, E269D, A326D
heavy 2: B1 heavy 2 with M329K
light: B1 light
notes: as for B1

Assays:
Experiment in all cases: SPR (Biacore); KD of H240-Kn033/H240-Hl033/L73-k0 divided by KD of this variant
FcgRIIaR = target: T1, FcgRIIaR
Description: (§1) H240-Kn204/H240-Hl211/L73-k0 and H240-Kn205/H240-Hl212/L73-k0 were prepared according to the method of Reference Example 1, by combining H240-Kn204 as one of the H chains and L73-k0 as the L chains with H240-Hl211 as the other H chain, and by combining H240-Kn205 as one of the H chains and L73-k0 as the L chains with H240-Hl212 as the other H chain, and then expressing them. The binding of the prepared variants to FcgRIa, FcgRIIaR, FcgRIIaH, FcgRIIb, FcgRIIIaF, and FcgRIIIaV was measured according to the method of Reference Example 8.
(§2) “fold 2aR”, “fold 2aH”, “fold 2b”, “fold 3aF”, and “fold 3aV” show the relative binding activity of each variant to FcgRIIaR, FcgRIIaH, FcgRIIb, FcgRIIIaF, and FcgRIIIaV, respectively, when the binding activity of H240-Kn033/H240-Hl033/L73-k0, a variant produced by introducing only alterations that promote formation of a heterodimerized antibody into a native IgG1, is defined as 1. Specifically, they are values obtained by dividing the KD value of H240-Kn033/H240-Hl033/L73-k0 for each FcgR by the KD value of an individual variant for each FcgR.
(§3) Analysis of interaction between objective antibody and the FcγR was carried out using Biacore T100 (GE Healthcare), Biacore T200, Biacore A100, and Biacore 4000. HBS-EP+ (GE Healthcare) was used as the running buffer, and the measurement temperature was set to 25° C. Chips produced by immobilizing the antigen peptide by the amine coupling method to a Series S sensor Chip CM5 (GE Healthcare), chips produced by allowing preliminarily biotinylated antigen peptides to interact with and immobilize onto a Series S Sensor Chip SA (certified) (GE Healthcare), chips produced by immobilizing Protein L (ACTIGEN, BioVision) to Series S Sencor Chip CM5 (GE Healthcare), or chips produced by immobilizing Protein A/G (Thermo Scientific) to Series S Sencor Chip CM5 (GE Healthcare) were used. Antibodies of interest were captured onto these chips, and allowed to interact to each FcγR diluted with running buffer.

FcgRIIaH = target: T2, FcgRIIaH
Description: as §1, §2, §3

FcgRIIb = target: T3, FcgRIIb
Description: as §1, §2, §3

FcgRIIIaF = target: T4, FcgRIIIaF (human, UniProt P08637 17-208)
T4 construct: extracellular domain; also called FcγRIIIa F; 3aF; not shown: His tag attached to the C terminus
T4 sequence (P08637 17-208): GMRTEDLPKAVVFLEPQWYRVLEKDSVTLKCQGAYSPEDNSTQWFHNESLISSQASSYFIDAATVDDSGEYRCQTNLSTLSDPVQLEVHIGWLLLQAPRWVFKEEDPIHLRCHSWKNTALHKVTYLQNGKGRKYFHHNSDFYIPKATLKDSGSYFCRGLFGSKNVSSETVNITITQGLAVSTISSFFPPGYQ
Description: as §1, §2, §3

FcgRIIIaV = target: T5, FcgRIIIaV (human, UniProt P08637 17-208)
T5 construct: extracellular domain; also called FcγRIIIa V; 3aV; not shown: His tag attached to the C terminus
T5 sequence (P08637 17-208 F176V limits assumed): as the sequence (P08637 17-208) above, with F160V counted along it
Description: as §1, §2, §3

Binder	fold 2aR (FcgRIIaR) [fold]	fold 2aH (FcgRIIaH) [fold]	fold 2b (FcgRIIb) [fold]	fold 3aF (FcgRIIIaF) [fold]	fold 3aV (FcgRIIIaV) [fold]
B1	1.2	2.3	0.6	138	82.8
B2	13.7	9.1	9.2	72.5	90.6
B3	26.4	10.6	17.4	87.9	88.9
B4	11.9	5.5	11.8	69	84.2
B5	29.6	15.3	20.6	82.9	96
B6	52.9	26	36.7	107	98
B7	0.7	1.6	0.5	85.3	60
B8	32.2	16.3	20.6	85.3	104
B9	25.5	11.8	15	107	102
B10	20	15.8	15	82.9	96
B11	0.7	2.1	0.5	112	70.6
B12	0.9	2.5	0.5	112	65.8
B13	26.4	6.8	27.5	121	126
